Reference: patent publication US20120070434A1
Like-named read-outs stand apart in the source and are kept apart here.

Key:
[1] = molecular target: Recombinant TPO receptor (R&D Systems); assay: BLI (Octet), biotinylated TPO receptor on streptavidin probe, second experiment
[2] = molecular target: Recombinant TPO receptor (R&D Systems)

recombinant human thrombopoietin (from UniProt P40225 22-353) (ligand)
Kd [1]: 3 nM

B1: HC+LC-TPO antibody (antibody)
heavy: QVQLVQSGAEVKKPGASVKVSCKASGYTFTYYAMHWVRQAPGQRPEWMGWINGGDGKTKYAQKFQGRLAITRDTSARTAYMELISLTSEDTAVYYCAKGAEMTVGSWGPGTLVTVSSASTKGPSVFPLAPCSRSTSESTAALGCLVKDYFPEPVTVSWNSGALTSGVHTFPAVLQSSGLYSLSSVVTVPSSNFGTQTYTCNVDHKPSNTKVDKTVERKCCVECPPCPAPPVANPIEGPTLRQWLAARARGGPSVFLFPPKPKDTLMISRTPEVTCVVVDVSQEDPEVQFNWYVDGVEVHNAKTKPREEQFNSTYRVVSVLTVLHQDWLNGKEYKCKVSNKGLPSSIEKTISKAKGQPREPQVYTLPPSQEEMTKNQVSLTCLVKGFYPSDIAVEWESNGQPENNYKTTPPVLDSDGSFFLYSRLTVDKSRWQEGNVFSCSVMHEALHNHYTQKSLSLSLGK
light: DIQMTQSPSSLSASVGDRVTLTCRASQGVRNALVWYQQKPGKAPERLIYAASILQSGVPSRFSGSGSGTEFTLTIGGLQPEDFATYYCLQHNSYPWTFGQGTKVEIKRTVAAPSVFIFPPSDEQLKSGTASVVCLLNNFYPREAKVQWKVDNALQSGNSQESVTEQDSKDSTYSLSSTLTLSKADYEKHKVYACEVTHQGLSSPVTKSFNRGECARSLIEGPTLRQWLAARAPI
Kd [2]: 2.32 nM | Kd [1]: 3 nM
